The target of data set [1] is HuR (ELAVL1) (UniProt Q15717 Q15717:1-326). The data set is described as follows: EMSA; 0.2-0.6 uM HuR; 30 mM Tris pH 7.4, 5 mM MgCl2, 50 mM KCl, yeast tRNA, room temperature; sequence listed as DNA, assayed as RNA transcript. The settings on record: pre-miRNA hairpin. Background: Mobility shift assays separate free from complexed probe on a gel.
Description: After 30 minutes at room temperature, reaction products were resolved through 6% native polyacrylamide gel electrophoresis. […] The resulting gel was dried and the protein RNA complex and unbound RNA were visualized by phosphor-imaging.
The target in data set [2] is T1, Wnt7a (UniProt O00755 32-349, limits assumed).
T1 construct: Endogenous protein of the A253 (HNSCC) cell lysate
T1 sequence (looked up): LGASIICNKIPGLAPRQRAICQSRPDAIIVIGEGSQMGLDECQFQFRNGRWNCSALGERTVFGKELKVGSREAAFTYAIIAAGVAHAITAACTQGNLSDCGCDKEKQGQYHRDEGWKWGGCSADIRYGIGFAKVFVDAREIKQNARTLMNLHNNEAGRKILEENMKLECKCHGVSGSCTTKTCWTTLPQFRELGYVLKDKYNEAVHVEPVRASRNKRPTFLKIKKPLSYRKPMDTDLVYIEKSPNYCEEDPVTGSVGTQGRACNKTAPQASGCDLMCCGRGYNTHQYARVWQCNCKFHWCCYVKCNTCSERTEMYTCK
Put plainly: co-IP with anti-FSTL1 antibody or IgG control from A253 lysate, western blot for Wnt7a. On the technique in general: Immunoblotting shows a protein as a band on a membrane.

HuR (ELAVL1), sequence (Q15717 whole entry, one chain of several): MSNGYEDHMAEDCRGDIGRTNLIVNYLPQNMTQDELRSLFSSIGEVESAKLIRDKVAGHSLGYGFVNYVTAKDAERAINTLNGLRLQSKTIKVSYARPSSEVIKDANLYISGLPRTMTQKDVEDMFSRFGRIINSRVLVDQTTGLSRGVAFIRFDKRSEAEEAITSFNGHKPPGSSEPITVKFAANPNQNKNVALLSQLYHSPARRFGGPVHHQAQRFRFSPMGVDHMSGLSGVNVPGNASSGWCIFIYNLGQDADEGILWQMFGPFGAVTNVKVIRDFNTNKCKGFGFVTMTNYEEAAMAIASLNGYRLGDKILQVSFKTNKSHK

B1: pre-miR-198 WT (ssRNA)
RNA: UCAUUGGUCCAGAGGGGAGAUAGGUUCCUGUGAUUUUUCCUUCUUCUCUAUAGAAUAAAUGA
For the molecule B1, the binding result in data set [1] is “binds”.

B2: Follistatin-related protein 1 (FSTL1) (other)
chain: EEELRSKSKICANVFCGAGRECAVTEKGEPTCLCIEQCKPHKRPVCGSNGKTYLNHCELHRDACLTGSKIQVDYDGHCKEKKSVSPSASPVVCYQSNRDELRRRIIQWLEAEIIPDGWFSKGSNYSEILDKYFKNFDNGDSRLDSSEFLKFVEQNETAINITTYPDQENNKLLRGLCVDALIELSDENADWKLSFQEFLKCLNPSFNPPEKKCALEDETYADGAETEVDCNRCVCACGNWVCTAMTCDGKNQKGAQTQTEEEMTRYVQELQKHQETAEKTKRVSTKEI
notes: Endogenous secreted glycoprotein in A253 cell lysates, pulled down with the anti-FSTL1 antibody; also called follistatin-like-1
Consider B2, for which the binding result in data set [2] is “binds”.

These data come from patent US20190330625A1, “CONSEQUENCES OF A DEFECTIVE SWITCH IN CUTANEOUS SQUAMOUS CELL CARCINOMA” (AGENCY FOR SCIENCE, TECHNOLOGY AND RESEARCH, published 2019).
